Assay results reported in article PMC10968392, “Fluorometric and Colorimetric Method for SARS-CoV-2 Detection Using Designed Aptamer Display Particles”.

B1: C1-AdP (SpS1-C1 displayed on magnetic particle) (ssDNA)
DNA: GAACATTGGCGTCCGTGAGTGAGACCATAGTCCAGCGAACTAAACCTACCCTAAAGGGCAAGGAAGACGGGCACTTCCTCAAACGCCCAA
modifications: 5' amino linkage to bead
B2: C4-AdP (SpS1-C4 displayed on magnetic particle) (ssDNA)
DNA: GAACATTGGCGTCCGTGAGCAGCTCGTGGTTGTTTGCTTGTATACTTTTGTGGTTTATCTTGTTTCTGATCACTTCCTCAAACGCCCAA
modifications: 5' amino linkage to bead

Molecular target: SARS-CoV-2 spike protein extracellular domain (ECD), biotinylated (SARS-CoV-2, UniProt P0DTC2)
Experiment: bead-based flow cytometry
Conditions: protein: commercial; chain copies: 3

Binder | binding result
B1 | binds
B2 | binds
